Measurements taken from patent US20220016254A1 (BEIJING QL BIOPHARMACEUTICAL, published 2022).

T1: human beta-Klotho (human, UniProt Q86Z14 1-1044)
T1 sequence (looked up): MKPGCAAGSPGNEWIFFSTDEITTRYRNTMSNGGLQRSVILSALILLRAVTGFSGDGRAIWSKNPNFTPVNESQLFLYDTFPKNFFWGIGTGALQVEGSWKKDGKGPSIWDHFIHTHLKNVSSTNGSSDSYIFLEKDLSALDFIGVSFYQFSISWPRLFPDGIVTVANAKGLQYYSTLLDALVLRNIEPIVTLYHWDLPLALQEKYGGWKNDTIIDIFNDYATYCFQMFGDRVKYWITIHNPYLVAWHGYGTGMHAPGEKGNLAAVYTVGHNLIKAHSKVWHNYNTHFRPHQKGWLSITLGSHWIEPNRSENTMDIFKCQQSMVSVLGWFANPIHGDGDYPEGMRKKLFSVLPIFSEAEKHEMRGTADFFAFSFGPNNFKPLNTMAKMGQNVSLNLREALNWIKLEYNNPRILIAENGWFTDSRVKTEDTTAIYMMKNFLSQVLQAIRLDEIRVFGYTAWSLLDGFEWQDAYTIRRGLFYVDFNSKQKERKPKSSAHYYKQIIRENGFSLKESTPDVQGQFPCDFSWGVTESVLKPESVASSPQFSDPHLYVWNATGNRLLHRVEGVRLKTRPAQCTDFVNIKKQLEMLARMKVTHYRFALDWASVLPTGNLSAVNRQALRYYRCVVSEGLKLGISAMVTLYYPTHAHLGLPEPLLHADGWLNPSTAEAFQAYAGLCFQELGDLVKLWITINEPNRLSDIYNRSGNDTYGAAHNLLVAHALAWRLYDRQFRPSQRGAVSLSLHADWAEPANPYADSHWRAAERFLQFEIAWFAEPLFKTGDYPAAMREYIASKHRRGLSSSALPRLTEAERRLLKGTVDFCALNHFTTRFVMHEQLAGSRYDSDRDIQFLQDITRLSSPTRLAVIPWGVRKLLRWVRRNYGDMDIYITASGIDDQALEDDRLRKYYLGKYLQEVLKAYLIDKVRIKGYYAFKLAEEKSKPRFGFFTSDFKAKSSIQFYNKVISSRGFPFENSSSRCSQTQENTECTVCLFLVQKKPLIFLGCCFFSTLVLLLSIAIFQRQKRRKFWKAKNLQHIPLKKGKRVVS


Key:
human beta-Klotho = biological target: T1, human beta-Klotho; assay: cell-based or functional assay
human GLP-1 receptor = human GLP-1 receptor (human, UniProt P43220 24-463); assay: cell-based or functional assay

| Binder | FGF21 activity (EC50, nM); p-ERK levels (human beta-Klotho) | GLP-1 activity (EC50, pM); CRE luciferase reporter (human GLP-1 receptor) |
| --- | --- | --- |
| Compound 42 (ligand, Moiety A (HOOC-(CH2)16-CO-gGlu-2XADO) on 71K and 242K of fusion polypeptide) HGEGTFTSDVSSYLEEQAAREFIAWLVRGGGGAQPGAQPGAQPGAQPGAQPGAQPGAQPGAQPGAQPGAQKHPIPDSSPLLQFGGQVRQRYLYTDDAQQTEAHLEIREDGTVGGAADQSPESLLQLRALRPGVIQILGVRTSRFLCQRPDGALYGSLHFDPEACSFRELLLEDGYNVYQSEAHGLPLHLPGQRSPHRDPAPRGPARFLPLPGLPPALPEPPGILAPQPPDVGSSDPLSLVGKSQGRSPSYES | 8.4 nM | – |
| Compound 13 (ligand, Moiety A (HOOC-(CH2)16-CO-gGlu-2XADO) on 222K of fusion polypeptide) HGEGTFTSDVSSYLEEQAAREFIAWLVRGGGGAQPGAQPGAQPGAQPGAQPHPIPDSSPLLQFGGQVRQRYLYTDDAQQTEAHLEIREDGTVGGAADQSPESLLQLRALRPGVIQILGVRTSRFLCQRPDGALYGSLHFDPEACSFRELLLEDGYNVYQSEAHGLPLHLPGQRSPHRDPAPRGPARFLPLPGLPPALPEPPGILAPQPPDVGSSDPLSLVGKSQGRSPSYES | 9.1 nM | 19.6 pM |
| Compound 14 (ligand, Moiety A (HOOC-(CH2)16-CO-gGlu-2XADO) on 222K of fusion polypeptide) HGEGTFTSDVSSYLEEQAAREFIAWLVRGGGGQEPGQEPGQEPGQEPGQEPHPIPDSSPLLQFGGQVRQRYLYTDDAQQTEAHLEIREDGTVGGAADQSPESLLQLRALRPGVIQILGVRTSRFLCQRPDGALYGSLHFDPEACSFRELLLEDGYNVYQSEAHGLPLHLPGQRSPHRDPAPRGPARFLPLPGLPPALPEPPGILAPQPPDVGSSDPLSLVGKSQGRSPSYES | 19 nM | 33.2 pM |
| Native FGF21 (ligand) HPIPDSSPLLQFGGQVRQRYLYTDDAQQTEAHLEIREDGTVGGAADQSPESLLQLKALKPGVIQILGVKTSRFLCQRPDGALYGSLHFDPEACSFRELLLEDGYNVYQSEAHGLPLHLPGNKSPHRDPAPRGPARFLPLPGLPPALPEPPGILAPQPPDVGSSDPLSMVGPSQGRSPSYAS | 10.6 nM | – |
| Compound 9 (ligand, Moiety A (HOOC-(CH2)16-CO-gGlu-2XADO) on 231K of fusion polypeptide) HGEGTFTSDVSSYLEEQAAREFIAWLVRGGGGGGGSGGGGSGGGGSGGGGSHPIPDSSPLLQFGGQVRQRYLYTDDAQQTEAHLEIREDGTVGGAADQSPESLLQLRALRPGVIQILGVRTSRFLCQRPDGALYGSLHFDPEACSFRELLLEDGYNVYQSEAHGLPLHLPGQRSPHRDPAPRGPARFLPLPGLPPALPEPPGILAPQPPDVGSSDPLSLVGGSQGRSPSYKS | 4.9 nM | 19.9 pM |
| Compound 20 (ligand, Moiety A (HOOC-(CH2)16-CO-gGlu-2XADO) on 51K and 221K of fusion polypeptide) HGEGTFTSDVSSYLEEQAAREFIAWLVRGGGGGGGSGGGGSGGGGSGGGGKHPIPDSSPLLQFGGQVRQRYLYTDDAQQTEAHLEIREDGTVGGAADQSPESLLQLRALRPGVIQILGVRTSRFLCQRPDGALYGSLHFDPEACSFRELLLEDGYNVYQSEAHGLPLHLPGQRSPHRDPAPRGPARFLPLPGLPPALPEPPGILAPQPPDVGSSDPLSLVKPSQGRSPSYES | 10.6 nM | 39.1 pM |
| Compound 15 (ligand, Moiety A (HOOC-(CH2)16-CO-gGlu-2XADO) on 231K of fusion polypeptide) HGEGTFTSDVSSYLEEQAAREFIAWLVRGGGGGGGSGGGGSGGGGSGGGGSHPIPDSSPLLQFGGQVRQRYLYTDDAQQTEAHLEIREDGTVGGAADQSPESLLQLRALRPGVIQILGVRTSRFLCQRPDGALYGSLHFDPEACSFRELLLEDGYNVYQSEAHGLPLHLPGQRSPHRDPAPRGPARFLPLPGLPPALPEPPGILAPQPPDVGSSDPLSLVGPSQGRSPSYKS | 7.3 nM | 16.8 pM |
| Compound 19 (ligand, Moiety A (HOOC-(CH2)16-CO-gGlu-2XADO) on 51K and 222K of fusion polypeptide) HGEGTFTSDVSSYLEEQAAREFIAWLVRGGGGGGGSGGGGSGGGGSGGGGKHPIPDSSPLLQFGGQVRQRYLYTDDAQQTEAHLEIREDGTVGGAADQSPESLLQLRALRPGVIQILGVRTSRFLCQRPDGALYGSLHFDPEACSFRELLLEDGYNVYQSEAHGLPLHLPGQRSPHRDPAPRGPARFLPLPGLPPALPEPPGILAPQPPDVGSSDPLSLVGKSQGRSPSYES | 13.6 nM | 20.3 pM |
| Compound 10 (ligand, Moiety A (HOOC-(CH2)16-CO-gGlu-2XADO) on 222K of fusion polypeptide) HGEGTFTSDVSSYLEEQAAREFIAWLVRGGGGGGGSGGGGSGGGGSGGGGSHPIPDSSPLLQFGGQVRQRYLYTDDAQQTEAHLEIREDGTVGGAADQSPESLLQLRALRPGVIQILGVRTSRFLCQRPDGALYGSLHFDPEACSFRELLLEDGYNVYQSEAHGLPLHLPGQRSPHRDPAPRGPARFLPLPGLPPALPEPPGILAPQPPDVGSSDPLSLVGKSQGRSPSYES | 4.5 nM | 17.6 pM |
| Compound 12 (ligand, Moiety A (HOOC-(CH2)16-CO-gGlu-2XADO) on 225K of fusion polypeptide) HGEGTFTSDVSSYLEEQAAREFIAWLVRGGGGGGGSGGGGSGGGGSGGGGSHPIPDSSPLLQFGGQVRQRYLYTDDAQQTEAHLEIREDGTVGGAADQSPESLLQLRALRPGVIQILGVRTSRFLCQRPDGALYGSLHFDPEACSFRELLLEDGYNVYQSEAHGLPLHLPGQRSPHRDPAPRGPARFLPLPGLPPALPEPPGILAPQPPDVGSSDPLSLVGGSQKRSPSYES | 4.1 nM | 17 pM |
| Compound 21 (ligand, Moiety A (HOOC-(CH2)16-CO-gGlu-2XADO) on 51K and 225K of fusion polypeptide) HGEGTFTSDVSSYLEEQAAREFIAWLVRGGGGGGGSGGGGSGGGGSGGGGKHPIPDSSPLLQFGGQVRQRYLYTDDAQQTEAHLEIREDGTVGGAADQSPESLLQLRALRPGVIQILGVRTSRFLCQRPDGALYGSLHFDPEACSFRELLLEDGYNVYQSEAHGLPLHLPGQRSPHRDPAPRGPARFLPLPGLPPALPEPPGILAPQPPDVGSSDPLSLVGGSQKRSPSYES | 17.6 nM | 36.8 pM |
| Compound 11 (ligand, Moiety A (HOOC-(CH2)16-CO-gGlu-2XADO) on 221K of fusion polypeptide) HGEGTFTSDVSSYLEEQAAREFIAWLVRGGGGGGGSGGGGSGGGGSGGGGSHPIPDSSPLLQFGGQVRQRYLYTDDAQQTEAHLEIREDGTVGGAADQSPESLLQLRALRPGVIQILGVRTSRFLCQRPDGALYGSLHFDPEACSFRELLLEDGYNVYQSEAHGLPLHLPGQRSPHRDPAPRGPARFLPLPGLPPALPEPPGILAPQPPDVGSSDPLSLVKPSQGRSPSYES | 3.9 nM | 18.2 pM |
| Compound 40 (ligand, Moiety A (HOOC-(CH2)16-CO-gGlu-2XADO) on 111K and 282K of fusion polypeptide) HGEGTFTSDVSSYLEEQAAREFIAWLVRGGGGAQPGAQPGAQPGAQPGAQPGAQPGAQPGAQPGAQPGAQPGAQPGAQPGAQPGAQPGAQPGAQPGAQPGAQPGAQPGAQKHPIPDSSPLLQFGGQVRQRYLYTDDAQQTEAHLEIREDGTVGGAADQSPESLLQLRALRPGVIQILGVRTSRFLCQRPDGALYGSLHFDPEACSFRELLLEDGYNVYQSEAHGLPLHLPGQRSPHRDPAPRGPARFLPLPGLPPALPEPPGILAPQPPDVGSSDPLSLVGKSQGRSPSYES | 8 nM | – |
| Compound 22 (ligand, Moiety A (HOOC-(CH2)16-CO-gGlu-2XADO) on 51K and 231K of fusion polypeptide) HGEGTFTSDVSSYLEEQAAREFIAWLVRGGGGGGGSGGGGSGGGGSGGGGKHPIPDSSPLLQFGGQVRQRYLYTDDAQQTEAHLEIREDGTVGGAADQSPESLLQLRALRPGVIQILGVRTSRFLCQRPDGALYGSLHFDPEACSFRELLLEDGYNVYQSEAHGLPLHLPGQRSPHRDPAPRGPARFLPLPGLPPALPEPPGILAPQPPDVGSSDPLSLVGGSQGRSPSYK | 7 nM | 50.4 pM |
